Assay results as given in patent publication US20210047402A1 (published 2021).
Positions count from the first letter of the chain named. Read-outs that look alike come from different tables or passages of the source. Values belong to the binder of their own block, whether it stands above or below them.

Experiments:
human CD22 [1] = molecular target: T1, human CD22 (human, UniProt P20273 20-687); experiment: BLI
How it was run: (§1)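 Affinity for human CD22 protein was measured by biolayer interferometry on an Octet QK-384 with anti-human IgG Fc capture biosensors, in 1×PBS, 0.1% BSA, 0.02% Tween-20, pH 7.2. Heavy chain-only antibodies were loaded at 5 μg/mL for 120 seconds, then dipped into a 7-point 1:2 dilution series of CD22 starting at 250 nM, with a buffer-only reference well. Kd was derived as koff/kon from a 1:1 binding model fit in Octet Data Analysis v9.0.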

human CD22 [2] = molecular target: T1, human CD22; experiment: BLI; remark: listed apart in the source
How it was run: as §1

T1 sequence (P20273 20-687): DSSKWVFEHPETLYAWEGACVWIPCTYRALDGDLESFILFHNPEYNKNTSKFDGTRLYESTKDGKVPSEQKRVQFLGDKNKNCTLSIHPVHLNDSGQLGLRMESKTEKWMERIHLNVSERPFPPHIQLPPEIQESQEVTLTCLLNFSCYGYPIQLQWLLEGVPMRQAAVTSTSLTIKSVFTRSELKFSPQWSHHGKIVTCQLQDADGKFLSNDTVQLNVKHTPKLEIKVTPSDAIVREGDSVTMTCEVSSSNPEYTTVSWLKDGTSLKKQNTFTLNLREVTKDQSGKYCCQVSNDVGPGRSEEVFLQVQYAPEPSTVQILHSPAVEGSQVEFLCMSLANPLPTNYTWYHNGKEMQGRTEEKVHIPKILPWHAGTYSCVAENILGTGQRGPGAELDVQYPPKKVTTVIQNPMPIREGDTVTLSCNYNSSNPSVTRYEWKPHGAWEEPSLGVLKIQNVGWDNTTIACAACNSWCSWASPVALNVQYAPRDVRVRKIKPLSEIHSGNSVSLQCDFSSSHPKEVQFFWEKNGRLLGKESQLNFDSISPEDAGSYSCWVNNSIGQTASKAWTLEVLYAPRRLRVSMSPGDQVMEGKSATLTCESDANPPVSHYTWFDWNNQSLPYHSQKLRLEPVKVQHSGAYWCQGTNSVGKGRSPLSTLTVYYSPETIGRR

B1: anti-CD22 heavy chain-only antibody Clone ID 335232 (antibody, V domains shown)
VH: QLQLQESGPGLVKPSETLSLTCTVSGDSISSGDYYWGWIRQPPGKGLEWIGHIYYSGATYYNPSLKNRVTISVDTSRNQSSLNLSSVTAADTAVYYCTREDSSNWRSRGQGTLVTVSS
Kd (human CD22 [1]): 24.6 nM

B2: anti-CD22 heavy chain-only antibody Clone ID 335160 (antibody, V domains shown)
VH: B1 VH with H52S, R77K, S80F, N83K, E100D
Kd (human CD22 [2]): 8.51 nM

B8: anti-CD22 heavy chain-only antibody Clone ID 335181 (antibody, V domains shown)
VH: B1 VH with D33G, R77K, S80F, N83K, E100D
Kd (human CD22 [2]): 9.44 nM

B10: anti-CD22 heavy chain-only antibody Clone ID 335307 (antibody, V domains shown)
VH: B1 VH with H52S, A58S, N67S, R77K, S80F, N83K, N104S
Kd (human CD22 [2]): 10.3 nM

B11: anti-CD22 heavy chain-only antibody Clone ID 335263 (antibody, V domains shown)
VH: B1 VH with D27G, S30N, S31D, G32N, D33S, Y34H, S80F, N104S
Kd (human CD22 [1]): 2580 nM

B12: anti-CD22 heavy chain-only antibody Clone ID 335323 (antibody, V domains shown)
VH: B1 VH with D33G, H52S, A58S, R77K, S80F, N83K, N104S
Kd (human CD22 [2]): 14.1 nM

B16: anti-CD22 heavy chain-only antibody Clone ID 335171 (antibody, V domains shown)
VH: B1 VH with D27G, G32S, D33S, H52S, S80F, E100D
Kd (human CD22 [1]): 84.5 nM

B17: anti-CD22 heavy chain-only antibody Clone ID 335271 (antibody, V domains shown)
VH: B1 VH with Q41H, R77K, S80F, N83K, N104S
Kd (human CD22 [2]): 21.6 nM

B18: anti-CD22 heavy chain-only antibody Clone ID 335185 (antibody, V domains shown)
VH: B1 VH with S80F
Kd (human CD22 [2]): 8.43 nM

B20: anti-CD22 heavy chain-only antibody Clone ID 335234 (antibody, V domains shown)
VH: B1 VH with H52N, R77K, S80F, N83K
Kd (human CD22 [2]): 12.4 nM

B21: anti-CD22 heavy chain-only antibody Clone ID 324508 (antibody, V domains shown)
VH: B1 VH with D27G, K66E, R77K, S80F, N83K, E100D
Kd (human CD22 [2]): 12.5 nM

Next, values leading:

Kd (human CD22 [2]): 7.44 nM
B3: anti-CD22 heavy chain-only antibody Clone ID 335245 (antibody, V domains shown)
VH: B1 VH with R77K, S80F, N83K, N104S

Kd (human CD22 [2]): 3.24 nM
B4: anti-CD22 heavy chain-only antibody Clone ID 335207 (antibody, V domains shown)
VH: B1 VH with A58V, N67S, S80F, N83K

Kd (human CD22 [2]): 2.66 nM
B5: anti-CD22 heavy chain-only antibody Clone ID 335161 (antibody, V domains shown)
VH: B1 VH with K66E, R77K, S80F, N83K, E100D

Kd (human CD22 [2]): 5.41 nM
B6: anti-CD22 heavy chain-only antibody Clone ID 335154 (antibody, V domains shown)
VH: B1 VH with A58V, R77K, S80F, N83K, E100D

Kd (human CD22 [2]): 3.17 nM
B7: anti-CD22 heavy chain-only antibody Clone ID 335260 (antibody, V domains shown)
VH: B1 VH with A58V, S80F, N104S

Kd (human CD22 [2]): 5.19 nM
B9: anti-CD22 heavy chain-only antibody Clone ID 335201 (antibody, V domains shown)
VH: B1 VH with A58V, S80F, N83K

Kd (human CD22 [2]): 3.77 nM
B13: anti-CD22 heavy chain-only antibody Clone ID 335151 (antibody, V domains shown)
VH: B1 VH with S80F, E100D

Kd (human CD22 [2]): 2.83 nM
B14: anti-CD22 heavy chain-only antibody Clone ID 335254 (antibody, V domains shown)
VH: B1 VH with A58V, R77K, S80F, N83K, N104S

Kd (human CD22 [2]): 6.8 nM
B15: anti-CD22 heavy chain-only antibody Clone ID 335203 (antibody, V domains shown)
VH: B1 VH with A58V, R77K, S80F, N83K

Kd (human CD22 [2]): 4.62 nM
B19: anti-CD22 heavy chain-only antibody Clone ID 335176 (antibody, V domains shown)
VH: B1 VH with R77K, S80F, N83K, E100D

Kd (human CD22 [2]): 5.27 nM
B22: anti-CD22 heavy chain-only antibody Clone ID 335261 (antibody, V domains shown)
VH: B1 VH with K66E, R77K, S80F, N83K, N104S
